Consider one protein from PMC3150272, “Crystal Structure of Reovirus Attachment Protein σ1 in Complex with Sialylated Oligosaccharides” (PLoS Pathogens, 2011).

This series concerns the molecule itself. The experiment in a line: crystal structure; crystals grown in 15% PEG200, 0.1 M MES pH 6.5; space group P2(1)2(1)2, one trimer in the asymmetric unit; soaked with 10 mM α-2,3-sialyllactose, α-2,6-sialyllactose or α-2,8-disialyllactose.

B1: reovirus type 3 Dearing (T3D) attachment protein σ1, body and head domains (residues 170-455), Ile249 (domain or fragment)
chain: VTSAGAPLSIRNNRMTMGLNDGLTLSGNNLAIRLPGNTGLNIQNGGLQFRFNTDQFQIVNNNLTLKTTVFDSINSRIGAIEQSYVASAVTPLRLNSSTKVLDMLIDSSTLEINSSGQLTVRSTSPNLRYPIADVSGGIGMSPNYRFRQSMWIGIVSYSGSGLNWRVQVNSDIFIVDDYIHICLPAFDGFSIADGGDLSLNFVTGLLPPLLTGDTEPAFHNDVVTYGAQTVAIGLSSGGAPQYMSKNLWVEQWQDGVLRLRVEGGGSITHSNSKWPAMTVSYPRSFT
notes: The His6-tagged GCN4 trimerization domain was removed by trypsin before the final purification and crystallization; also called T3D σ1; reovirus attachment protein σ1; source: E. coli Rosetta 2 DE3, purified (Ni-IMAC, on-column trypsin digestion, Superdex-200 SEC); not shown: His6, N-terminal, cleaved; GCN4 trimerization domain (modified GCN4 leucine zipper), N-terminal, cleaved
B1: the “stoichiometry N” value stood at 3.
